Measurements taken from patent US20220125947A1 (published 2022).
Numbering of substitutions follows the chain as printed.

B1: VG9B77 (antibody, human IgG1, kappa, V domains shown)
VH: EVQLVESGAEVMKPGSSVKVSCKASGGTFSSYAISWVRQAPEQGLEWMGGIIPFFGTADYAQKFQGRVTITADKSTNTAYMELTSLRSEDTAVYYCATATVTTDYYYGMDVWGQGTMVTVSS
VL: EIVMTQSPLFSPVTLGQPASISCRSSQSLVHSDGNTYLSWLQQRPGQPPRLLIYEISNRFTGVPDRFSGSGAGTDFTLKISRVEAEDVGVYYCMQARQFPLTFGGGTKVEIKR
notes: IgG1, kappa; specificity column: g/d constant
B2: VG9B80 (antibody, human IgG1, kappa, V domains shown)
VH: EVQLVQSGGGLVKSGGSLRLSCAASGFTFSTYSMNWVRQAPGKGLEWVSSISSSSSYIFYADSVKGRIIISRDNAKNSLYLQMNSVRADDTAVYYCAKDGELGVFDYWGQGTLVTVSS
VL: EIVLTQSPGTLSLSAGERATLSCRASQSISSSYLAWYQQKPGQAPRVLIYGPSGRATGIPDRFRGSGSGTDFTLTISRLEPEDFAVYYCQQFGRSPLTFGGGTKVEIKR
notes: IgG1, kappa
B3: VG9B54 (antibody, human IgG1, kappa, V domains shown)
VH: EVQLVESGGGLVKPGGSLRLSCAASGFAFSSYSLTWVRQAPGKGLEWVSSISSSSSYIFYADSVKGRFTISRDNAKNSLYLQMNSLRAEDTAVYYCATDGELGPFDYWGQGTTVTVSS
VL: B2 VL with L4M, A15P, I29V, Y37F, V47R, P52A, G54S, R64S, F92Y
notes: IgG1, kappa
B4: VG9B429 (antibody, human IgG1, kappa)
heavy: not shown
light: DIQMTQSPSSVSASVGDRVTITCRASQGINSWLAWYQQKPGNAPKLLIYAASSLQSGVPSRFSGIGSGTDFIFTISSLQPEDFASYYCQQANSFPWTFGQGTRLEIKRTVAAPSVFIFPPSDEQLKSGTASVVCLLNNFYPREAKVQWKVDNALQSGNSQESVTEQDSKDSTYSLSSTLTLSKADYEKHKVYACEVTHQGLSSPVTKSFNRGEC
notes: IgG1, kappa
B5: VG9B414 (antibody, human IgG1, kappa)
heavy: not shown
light: B4 light with D1E, Q3V
notes: IgG1, kappa
B6: VG9B88 (antibody, human IgG1, kappa, V domains shown)
VH: EVQLVESGGGLVKPGGSLRLSCAVSGFTFSSYTMNWVRQAPGKGLEWVSSISTSSSYIDYADSVKGRFTISRDNAKKSLYLQMNSLRAEDTAVYYCARDGDMVAPIKGSFDYWGQGTLVTVSS
VL: EIVLTQSPLSLPVTPGEPASISCRSSQSLLNSDDGNTYLDWYLQKPGQSPQLLIYTLSYRASGVPDRFSGSGSGTDFTLKISRVEAEDVGVYYCMQRIEFPITFGQGTRLEIKR
notes: IgG1, kappa; also called antibody #35
B7: VG9B430 (antibody, human IgG1, kappa, V domains shown)
VH: EVQLLESGGGLVKPGGSLRLSCSASGFTFSSYDMNWVRQAPGKGLEWVSSISSSSSYIYYADSVKGRFTISRDNAKNSLYLQMNSLRAEDTAVYHCARDVGVTTDYYYYGMDVWGQGTMVTVSS
VL: EIVLTQSPGTLSLSPGDRATLSCRASQSVASSYLAWYQQKPGQSPRLLIYGASSRATGIPDRFSGSGSGTDFTLTISRLEPEDFAVYYCQQYGSSPPYTFGQGTKLEIKR
notes: IgG1, kappa; also called antibody #19
B8: VG9B73 (antibody, human IgG1, kappa, V domains shown)
VH: EVQLVQSGGGLVKPGGSLRLSCAASGFTFSNYDMNWVRQAPGKGLEWVSSISSSSSYIYYADSVKGRFTISRDNARNSLFLQMSSLRAEDTAVYYCAREIGVTGTTYYQDYGMDVWGQGTTVTVSS
VL: B7 VL with L4M, D17E, V29F, A30S, S32N, S44A, V86L, Y98F, L106V
notes: IgG1, kappa; also called antibody #22
B9: VG9B58 (antibody, human IgG1, kappa, V domains shown)
VH: QVQLQESGPGLVKPSETLSLTCTVSGGSIKSSYWTWIRQPPGKGLEWIGYMFYLGSTNYNPSLKSRVTMSIDTSRNQFSLKLSSVTAADTAVYYCSRERPVLDAFDIWGQGTMVTVSS
VL: DIQMTQSPSAMSASVGDRVTITCRASQDITNYLAWFQQKPGKVPKRLIYAASSLQGGVPSRFSGSGSGTEFTLTISSLQPEDFSTYYCLQHDTYPYTFGQGTKVDIKR
notes: IgG1, kappa; also called antibody #28
B10: VG9B472 (antibody, human IgG1, kappa, V domains shown)
VH: QVQLVESGGGLVKPGGSLRLSCAASGFTFSHYDMNWVRQAPGKGLEWVSSISSSSSYIFYADSVKGRFTISRDNAKNSLLLQMNSLRAEDTAVYHCARDRGVGDTSDYYSFGLDVWGQGTTVTVSS
VL: EIVLTQSPSSLSASVGDRVTITCRASQGIATYLAWYQQKPGKVPNLLIYAASTLQSGVPSRFSGSGSGTDFTLTISSLQPEDVATYYCQKYNSAPPWTFGQGTKVEIKR
notes: IgG1, kappa; also called antibody #33
B11: VG9B143 (antibody, human IgG1, lambda, V domains shown)
VH: EVQLVESGGGLVQPGGSLRLSCAASGFTFSTYGMNWVRQAPGKGLEWISYISTSSYTIYYSDSVKGRFTVSRDNAKNSLYLQMNSLRDEDTAVYYCAREGDWWYFDLWGRGTTVTVSS
VL: QSALTQPASVSGSPGQSITISCTGTSSDVGGYNYVSWYQQHPGKAPKLMIYEVSNRPSGVSYRFSGSKSGNTASLTISGLQAEDEADYYCSSYTSSSTLVFGGGTKLTVLG
notes: IgG1, lambda; also called antibody #31
B12: VG9B419 (antibody, human IgG1, kappa)
heavy: not shown
light: EIVLTQSPGTLSLSPGDRATLSCRASQSVASSYLAWYQQKPGQSPRLLIYGASSRATGIPDRFSGSGSGTDFTLTISRLEPEDFAVYYCQQYGSSPPYTFGQGTKVEIKRTVAAPSVFIFPPSDEQLKSGTASVVCLLNNFYPREAKVQWKVDNALQSGNSQESVTEQDSKDSTYSLSSTLTLSKADYEKHKVYACEVTHQGLSSPVTKSFNRGEC
notes: IgG1, kappa; also called antibody #29
B13: VG9B413 (antibody, human IgG1, kappa)
heavy: not shown
light: B12 light with L4M
notes: IgG1, kappa; also called antibody #37
B14: VG9B418 (antibody, human IgG1, kappa)
heavy: not shown
light: B12 light with V106L
notes: IgG1, kappa; also called antibody #32
B15: VG9B98 (antibody, human IgG1, kappa, V domains shown)
VH: EVQLVQSGGDLVKSGGSLRLSCAASGFTFSSYSMYWVRQAPGKGLEWVSSIGSSSTYIFYADSVKGRFTISRDNAMTSLYLQMNRLGAEDSAVYYCARDGELGPFEYWGQGTLVTVSS
VL: EIVLTQSPGTLSLSPGERATLSCRASQSVSTSYLAWFQQKPGQAPRLLIFGTSSRATGIPDRFSGSGSGTDFTLTISRLEPEDFAVYHCLQYGRSPLTFGGGTKVDIKR
notes: IgG1, kappa; also called antibody #21
B16: VG9B417 (antibody, human IgG1, kappa)
heavy: not shown
light: B4 light with Q3V, R103K, L104V
notes: IgG1, kappa; also called antibody #27
B17: VG9B421 (antibody, human IgG1, kappa)
heavy: not shown
light: B4 light
notes: IgG1, kappa; also called antibody #34
B18: VG9B428 (antibody, human IgG1, kappa)
heavy: not shown
light: B4 light with D1E, Q3V, R103K, L104V
notes: IgG1, kappa; also called antibody #18
B19: VG9B384 (antibody, human IgG1, lambda, V domains shown)
VH: QVQLQESGPALVKPTQTLTLTCTFSGFSLSSSGMCVSWIRQPPGKALEWLTLIDWFDDKYYSTSLKTRLTISKDTSKNQVVLTMTNMDPVDTATYYCARIRGTGAYYYGLDVWGQGTMVTVSS
VL: SYELMQPPSVSVSPGQTASITCSGNELGDKYASWYQQQPGQSPVLVIYQDNKRPSGIPERFSGSNSGNTATLTISGTQAMDEADYYCQAWDSSKVVFGGGTKLTVLG
notes: IgG1, lambda; also called antibody #36
B20: VG9B133 (antibody, human IgG1, kappa, V domains shown)
VH: EVQLVESGGGLVKPGGSLRLSCAAAGFTFSNYDMNWVRQVPGKGLEWVSSISSSSSYIYYADSVKGRFTISRDNAKNSLYLQMNTLRAEDTAVYYCARDLGITGTTMDYYYGMDVWGQGTMVTVSS
VL: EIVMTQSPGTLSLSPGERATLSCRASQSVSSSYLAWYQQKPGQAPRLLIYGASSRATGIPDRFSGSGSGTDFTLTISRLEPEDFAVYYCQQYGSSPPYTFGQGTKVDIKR
notes: IgG1, kappa; also called antibody #23

Molecular target: T1, γδ T cell receptor on human γδ T cells (human)
T1 construct: whole, on cells; Target is the γδ TCR on a mixed population of human γδ T cells; also called AG000003021 (γδ T cells)
Assay: flow cytometry DRC binding 37 C, human γδ T cells
Description: (§1) Binding of antibodies to human γδ T cells or SKW cell lines expressing Vγ9/Vδ2, Vγ9/Vδ2 or Vγ5/Vδ2 was carried out by flow cytometry. Briefly, the cells were centrifuged at 300×g for 5 minutes and the pellet was resuspended in 34 ml fresh media (in RPMI+10% FBS). 50 μL of the cells were then plated (44K cells/well) into assay plates. Samples were incubated for one hour at 37° C. in tissue culture (TC) incubator followed by wash steps by adding 100 μl FACS staining buffer. Secondary detention antibodies (A647 conjugated anti-human IgG Fc specific antibody (2 μg/mL) along with AF488 anti mouse CD3, clone OKT3 at 1 ug/mL) were added at 50 μL/well to appropriate wells according to the plate map. After incubating for 60 minutes at 37° C. in the TC incubator, cells were again washed as described above. This is followed by resuspension in 20 μL/well running buffer containing 1:1000 dilution of Sytox blue dead cell stain and the plates were run on iQue Screener.
(§2) Gating and data analysis: Human anti-human Vγ9 antibody (VG9B2 mAb at 10 nM) was used to mark the gating of positive population. All cells were first gated for singlets on SCS-A vs. SCS-H dot plot, live/dead followed by CD3 positive population, and this subset of CD3 positive population was gated for Vγ9 positive binding using positive control mAb. Cells were also assessed for cell binding of control mAbs by RL1 (A647) Geomeans from the live cell population. Advanced metrics were used and normalization metrics were chosen to calculate fold over background wells containing secondary antibody alone (designated as ‘background’ within ForeCyt settings).

Max. Activity | Binder
772 fold over background | B1

Molecular target: γδ T cell receptor on human γδ T cells (AG000003021) (human)
Assay: flow cytometry, DRC binding at 37°C on human γδ T cells
Description: as §1, §2

Max. Activity | Binder
3480 fold over background | B2
4290 fold over background | B3
3640 fold over background | B4
3300 fold over background | B5

Molecular target: T2, γδ T cell receptor on human γδ T cells (human)
T2 construct: also called AG000003021 (γδ T cells)
Assay: flow cytometry, dose-response binding at 37 C on human γδ T cells
Description: as §1, §2

Max. Activity | Binder
2560 fold over background | B6
2970 fold over background | B7
2840 fold over background | B8
2690 fold over background | B9
2620 fold over background | B10
2630 fold over background | B11
2690 fold over background | B12
2470 fold over background | B13
2630 fold over background | B14
2880 fold over background | B15
2700 fold over background | B16
2610 fold over background | B17
2980 fold over background | B18
2550 fold over background | B19
2840 fold over background | B20
